From patent US20250368745A1 (published 2025)

T1: human IL-18BP (human, UniProt O95998 31-194)
T1 construct: UniProt printed as 095998; also called hIL-18BP
T1 sequence: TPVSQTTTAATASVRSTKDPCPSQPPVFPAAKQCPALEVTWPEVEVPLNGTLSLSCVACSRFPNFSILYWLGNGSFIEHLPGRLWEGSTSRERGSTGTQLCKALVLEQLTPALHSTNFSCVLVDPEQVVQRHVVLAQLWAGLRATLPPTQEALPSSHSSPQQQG


Each binder was assayed against T1, human IL-18BP (assay: BLI, apparent KD).

Binder | Kd [nM]
SA302a HC-H35N (antibody, V domains shown) VH: QVQLQESGPGLVKPSQTLSLTCTVSGYSITSDYNANWIRQPPGKGLEWIGYIHYSGSTNYNPSLKSRVTISRDTSKNQFSLKLSSVTAADTAVYYCARNYGSIYVNYFDYWGQGTLVTVSS VL: EIVLTQSPATLSLSPGERATLSCSASSSVSYMYWYQQKPGQAPRPLIYRTSNLASGIPARFSGSGSGTDFTLTISSLEPEDFAVYYCQQYHSYPTFGGGTKVEIK | 3.02
SA302a HC-N33bK (antibody, V domains shown) VH: QVQLQESGPGLVKPSQTLSLTCTVSGYSITSDYKAHWIRQPPGKGLEWIGYIHYSGSTNYNPSLKSRVTISRDTSKNQFSLKLSSVTAADTAVYYCARNYGSIYVNYFDYWGQGTLVTVSS VL: EIVLTQSPATLSLSPGERATLSCSASSSVSYMYWYQQKPGQAPRPLIYRTSNLASGIPARFSGSGSGTDFTLTISSLEPEDFAVYYCQQYHSYPTFGGGTKVEIK | 1.12
SA302a HC-N33bP (antibody, V domains shown) VH: QVQLQESGPGLVKPSQTLSLTCTVSGYSITSDYPAHWIRQPPGKGLEWIGYIHYSGSTNYNPSLKSRVTISRDTSKNQFSLKLSSVTAADTAVYYCARNYGSIYVNYFDYWGQGTLVTVSS VL: EIVLTQSPATLSLSPGERATLSCSASSSVSYMYWYQQKPGQAPRPLIYRTSNLASGIPARFSGSGSGTDFTLTISSLEPEDFAVYYCQQYHSYPTFGGGTKVEIK | 6.05
SA302a HC-H35R (antibody, V domains shown) VH: QVQLQESGPGLVKPSQTLSLTCTVSGYSITSDYNARWIRQPPGKGLEWIGYIHYSGSTNYNPSLKSRVTISRDTSKNQFSLKLSSVTAADTAVYYCARNYGSIYVNYFDYWGQGTLVTVSS VL: EIVLTQSPATLSLSPGERATLSCSASSSVSYMYWYQQKPGQAPRPLIYRTSNLASGIPARFSGSGSGTDFTLTISSLEPEDFAVYYCQQYHSYPTFGGGTKVEIK | 1.18
SA302a HC-H35D (antibody, V domains shown) VH: QVQLQESGPGLVKPSQTLSLTCTVSGYSITSDYNADWIRQPPGKGLEWIGYIHYSGSTNYNPSLKSRVTISRDTSKNQFSLKLSSVTAADTAVYYCARNYGSIYVNYFDYWGQGTLVTVSS VL: EIVLTQSPATLSLSPGERATLSCSASSSVSYMYWYQQKPGQAPRPLIYRTSNLASGIPARFSGSGSGTDFTLTISSLEPEDFAVYYCQQYHSYPTFGGGTKVEIK | 4.23
SA302a HC-H35L (antibody, V domains shown) VH: QVQLQESGPGLVKPSQTLSLTCTVSGYSITSDYNALWIRQPPGKGLEWIGYIHYSGSTNYNPSLKSRVTISRDTSKNQFSLKLSSVTAADTAVYYCARNYGSIYVNYFDYWGQGTLVTVSS VL: EIVLTQSPATLSLSPGERATLSCSASSSVSYMYWYQQKPGQAPRPLIYRTSNLASGIPARFSGSGSGTDFTLTISSLEPEDFAVYYCQQYHSYPTFGGGTKVEIK | 1.74
SA302a HC-N33bA (antibody, V domains shown) VH: QVQLQESGPGLVKPSQTLSLTCTVSGYSITSDYAAHWIRQPPGKGLEWIGYIHYSGSTNYNPSLKSRVTISRDTSKNQFSLKLSSVTAADTAVYYCARNYGSIYVNYFDYWGQGTLVTVSS VL: EIVLTQSPATLSLSPGERATLSCSASSSVSYMYWYQQKPGQAPRPLIYRTSNLASGIPARFSGSGSGTDFTLTISSLEPEDFAVYYCQQYHSYPTFGGGTKVEIK | 5.45
SA302a HC-H35G (antibody, V domains shown) VH: QVQLQESGPGLVKPSQTLSLTCTVSGYSITSDYNAGWIRQPPGKGLEWIGYIHYSGSTNYNPSLKSRVTISRDTSKNQFSLKLSSVTAADTAVYYCARNYGSIYVNYFDYWGQGTLVTVSS VL: EIVLTQSPATLSLSPGERATLSCSASSSVSYMYWYQQKPGQAPRPLIYRTSNLASGIPARFSGSGSGTDFTLTISSLEPEDFAVYYCQQYHSYPTFGGGTKVEIK | 2.05

Target: T1, human IL-18BP
Experiment: BLI, apparent KD
Remark: another data set of the same source

Binder | Kd [nM]
SA301a HC-H52A (antibody, name in Kabat numbering, V domains shown, IgG1 kappa) VH: QVQLQESGPGLVKPSQTLSLTCTVSGYSITSDYNSHWIRQPPGKGLEWIGYIAYSGSTNYNPSLKSRVTISRDTSKNQFSLKLSSVTAADTAVYYCARNYGSIYVNYFDYWGQGTLVTVSS VL: EIVLTQSPATLSLSPGERATLSCSASSSVSYMYWYQQKPGQAPRPLIYRTSNLASGIPARFSGSGSGTDFTLTISSLEPEDFAVYYCQQYHSYPTFGGGTKVEIK | 0.24
SA301a HC-S54G (antibody, name in Kabat numbering, V domains shown, IgG1 kappa) VH: QVQLQESGPGLVKPSQTLSLTCTVSGYSITSDYNSHWIRQPPGKGLEWIGYIHYGGSTNYNPSLKSRVTISRDTSKNQFSLKLSSVTAADTAVYYCARNYGSIYVNYFDYWGQGTLVTVSS VL: EIVLTQSPATLSLSPGERATLSCSASSSVSYMYWYQQKPGQAPRPLIYRTSNLASGIPARFSGSGSGTDFTLTISSLEPEDFAVYYCQQYHSYPTFGGGTKVEIK | 0.33
SA301a HC-S54L (antibody, name in Kabat numbering, V domains shown, IgG1 kappa) VH: QVQLQESGPGLVKPSQTLSLTCTVSGYSITSDYNSHWIRQPPGKGLEWIGYIHYLGSTNYNPSLKSRVTISRDTSKNQFSLKLSSVTAADTAVYYCARNYGSIYVNYFDYWGQGTLVTVSS VL: EIVLTQSPATLSLSPGERATLSCSASSSVSYMYWYQQKPGQAPRPLIYRTSNLASGIPARFSGSGSGTDFTLTISSLEPEDFAVYYCQQYHSYPTFGGGTKVEIK | 2.64
SA301a HC-H52Y (antibody, name in Kabat numbering, V domains shown, IgG1 kappa) VH: QVQLQESGPGLVKPSQTLSLTCTVSGYSITSDYNSHWIRQPPGKGLEWIGYIYYSGSTNYNPSLKSRVTISRDTSKNQFSLKLSSVTAADTAVYYCARNYGSIYVNYFDYWGQGTLVTVSS VL: EIVLTQSPATLSLSPGERATLSCSASSSVSYMYWYQQKPGQAPRPLIYRTSNLASGIPARFSGSGSGTDFTLTISSLEPEDFAVYYCQQYHSYPTFGGGTKVEIK | 0.79
SA301a HC-H52P (antibody, name in Kabat numbering, V domains shown, IgG1 kappa) VH: QVQLQESGPGLVKPSQTLSLTCTVSGYSITSDYNSHWIRQPPGKGLEWIGYIPYSGSTNYNPSLKSRVTISRDTSKNQFSLKLSSVTAADTAVYYCARNYGSIYVNYFDYWGQGTLVTVSS VL: EIVLTQSPATLSLSPGERATLSCSASSSVSYMYWYQQKPGQAPRPLIYRTSNLASGIPARFSGSGSGTDFTLTISSLEPEDFAVYYCQQYHSYPTFGGGTKVEIK | 0.01
SA301a HC-H52K (antibody, name in Kabat numbering, V domains shown, IgG1 kappa) VH: QVQLQESGPGLVKPSQTLSLTCTVSGYSITSDYNSHWIRQPPGKGLEWIGYIKYSGSTNYNPSLKSRVTISRDTSKNQFSLKLSSVTAADTAVYYCARNYGSIYVNYFDYWGQGTLVTVSS VL: EIVLTQSPATLSLSPGERATLSCSASSSVSYMYWYQQKPGQAPRPLIYRTSNLASGIPARFSGSGSGTDFTLTISSLEPEDFAVYYCQQYHSYPTFGGGTKVEIK | 0.01
SA301a HC-S54M (antibody, name in Kabat numbering, V domains shown, IgG1 kappa) VH: QVQLQESGPGLVKPSQTLSLTCTVSGYSITSDYNSHWIRQPPGKGLEWIGYIHYMGSTNYNPSLKSRVTISRDTSKNQFSLKLSSVTAADTAVYYCARNYGSIYVNYFDYWGQGTLVTVSS VL: EIVLTQSPATLSLSPGERATLSCSASSSVSYMYWYQQKPGQAPRPLIYRTSNLASGIPARFSGSGSGTDFTLTISSLEPEDFAVYYCQQYHSYPTFGGGTKVEIK | 1.94
SA301a HC-S54Q (antibody, name in Kabat numbering, V domains shown, IgG1 kappa) VH: QVQLQESGPGLVKPSQTLSLTCTVSGYSITSDYNSHWIRQPPGKGLEWIGYIHYQGSTNYNPSLKSRVTISRDTSKNQFSLKLSSVTAADTAVYYCARNYGSIYVNYFDYWGQGTLVTVSS VL: EIVLTQSPATLSLSPGERATLSCSASSSVSYMYWYQQKPGQAPRPLIYRTSNLASGIPARFSGSGSGTDFTLTISSLEPEDFAVYYCQQYHSYPTFGGGTKVEIK | 2.31
SA301a HC-S54R (antibody, name in Kabat numbering, V domains shown, IgG1 kappa) VH: QVQLQESGPGLVKPSQTLSLTCTVSGYSITSDYNSHWIRQPPGKGLEWIGYIHYRGSTNYNPSLKSRVTISRDTSKNQFSLKLSSVTAADTAVYYCARNYGSIYVNYFDYWGQGTLVTVSS VL: EIVLTQSPATLSLSPGERATLSCSASSSVSYMYWYQQKPGQAPRPLIYRTSNLASGIPARFSGSGSGTDFTLTISSLEPEDFAVYYCQQYHSYPTFGGGTKVEIK | 4.06
SA301a HC-S54N (antibody, name in Kabat numbering, V domains shown, IgG1 kappa) VH: QVQLQESGPGLVKPSQTLSLTCTVSGYSITSDYNSHWIRQPPGKGLEWIGYIHYNGSTNYNPSLKSRVTISRDTSKNQFSLKLSSVTAADTAVYYCARNYGSIYVNYFDYWGQGTLVTVSS VL: EIVLTQSPATLSLSPGERATLSCSASSSVSYMYWYQQKPGQAPRPLIYRTSNLASGIPARFSGSGSGTDFTLTISSLEPEDFAVYYCQQYHSYPTFGGGTKVEIK | 0.36
SA301a HC-S54P (antibody, name in Kabat numbering, V domains shown, IgG1 kappa) VH: QVQLQESGPGLVKPSQTLSLTCTVSGYSITSDYNSHWIRQPPGKGLEWIGYIHYPGSTNYNPSLKSRVTISRDTSKNQFSLKLSSVTAADTAVYYCARNYGSIYVNYFDYWGQGTLVTVSS VL: EIVLTQSPATLSLSPGERATLSCSASSSVSYMYWYQQKPGQAPRPLIYRTSNLASGIPARFSGSGSGTDFTLTISSLEPEDFAVYYCQQYHSYPTFGGGTKVEIK | 1.11
SA301a HC-H52T (antibody, name in Kabat numbering, V domains shown, IgG1 kappa) VH: QVQLQESGPGLVKPSQTLSLTCTVSGYSITSDYNSHWIRQPPGKGLEWIGYITYSGSTNYNPSLKSRVTISRDTSKNQFSLKLSSVTAADTAVYYCARNYGSIYVNYFDYWGQGTLVTVSS VL: EIVLTQSPATLSLSPGERATLSCSASSSVSYMYWYQQKPGQAPRPLIYRTSNLASGIPARFSGSGSGTDFTLTISSLEPEDFAVYYCQQYHSYPTFGGGTKVEIK | 1.92
SA301a HC-S54T (antibody, name in Kabat numbering, V domains shown, IgG1 kappa) VH: QVQLQESGPGLVKPSQTLSLTCTVSGYSITSDYNSHWIRQPPGKGLEWIGYIHYTGSTNYNPSLKSRVTISRDTSKNQFSLKLSSVTAADTAVYYCARNYGSIYVNYFDYWGQGTLVTVSS VL: EIVLTQSPATLSLSPGERATLSCSASSSVSYMYWYQQKPGQAPRPLIYRTSNLASGIPARFSGSGSGTDFTLTISSLEPEDFAVYYCQQYHSYPTFGGGTKVEIK | 1.14
